In publication PMC9249759, “Analysis of diverse double-strand break synapsis with Polλ reveals basis for unique substrate specificity in nonhomologous end-joining”:

What was measured:
[1] = target: T1, DNA polymerase lambda catalytic domain with brooch motif (DSB.B crystals) (Homo sapiens, UniProt Q9UGP5 233-575); assay: X-ray crystallography, 2.25 A; dUMPNPP, Mg2+ (metal B), Na+ in HhH2 site; Crystals only: DNA with protein on ice or RT, then 0.91 mM dUMPNPP; SSB cacodylate pH 6.5/KCl/Mg acetate/PEG 8000 RT; DSB.A tripotassium citrate/PEG 3350 4 C; DSB.B Na sulfate/PEG 3350 RT; DSB.C cacodylate pH 6.5/ammonium sulfate/PEG 8K 4 C; DSB.D cacodylate pH 6.5/Ca acetate/PEG 8K 4 C, soaked in Mg acetate; conditions: protein: recombinant; tags: GST tag removed by TEV; single-stranded upstream primer plus duplex CGGCAGC:GCCG (3' overhang 3 nt); 2-nt microhomology; primer 5' end mispairs with same primer of neighbouring complex
T1 sequence: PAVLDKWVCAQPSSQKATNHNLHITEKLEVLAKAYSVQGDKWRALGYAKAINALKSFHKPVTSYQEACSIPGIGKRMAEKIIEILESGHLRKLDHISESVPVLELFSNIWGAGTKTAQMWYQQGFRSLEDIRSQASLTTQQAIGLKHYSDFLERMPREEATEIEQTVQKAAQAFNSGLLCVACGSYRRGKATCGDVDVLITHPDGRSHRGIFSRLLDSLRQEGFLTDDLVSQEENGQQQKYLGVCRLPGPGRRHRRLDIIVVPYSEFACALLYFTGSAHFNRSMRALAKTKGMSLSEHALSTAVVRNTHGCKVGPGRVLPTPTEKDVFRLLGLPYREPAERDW

[2] = target: T2, DNA polymerase lambda catalytic domain with brooch motif (Homo sapiens, UniProt Q9UGP5 235-575); assay: X-ray crystallography, 1.65 A; dUMPNPP, Ca2+/Mg2+ (metal A), Mg2+ (metal B); pre-catalytic; Crystals only: DNA with protein on ice or RT, then 0.91 mM dUMPNPP; SSB cacodylate pH 6.5/KCl/Mg acetate/PEG 8000 RT; DSB.A tripotassium citrate/PEG 3350 4 C; DSB.B Na sulfate/PEG 3350 RT; DSB.C cacodylate pH 6.5/ammonium sulfate/PEG 8K 4 C; DSB.D cacodylate pH 6.5/Ca acetate/PEG 8K 4 C, soaked in Mg acetate; conditions: protein: recombinant; tags: GST tag removed by TEV; two duplexes: blunt GCACTG:CAGTGC and CGGCA:GCCG (3' overhang 1 nt); no microhomology
T2 sequence: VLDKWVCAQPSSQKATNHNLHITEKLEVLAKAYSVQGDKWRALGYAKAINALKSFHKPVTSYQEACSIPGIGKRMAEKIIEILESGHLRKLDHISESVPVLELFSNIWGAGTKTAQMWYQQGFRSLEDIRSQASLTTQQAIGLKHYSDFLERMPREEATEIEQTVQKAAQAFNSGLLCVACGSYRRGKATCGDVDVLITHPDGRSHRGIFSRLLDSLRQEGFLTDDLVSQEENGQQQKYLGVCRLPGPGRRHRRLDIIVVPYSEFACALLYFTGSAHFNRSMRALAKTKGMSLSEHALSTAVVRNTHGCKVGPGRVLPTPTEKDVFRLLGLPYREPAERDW

[3] = target: T2, DNA polymerase lambda catalytic domain …; assay: X-ray crystallography, 1.8 A; dUMPNPP, Na+ (metal A), Mg2+ (metal B); Crystals only: DNA with protein on ice or RT, then 0.91 mM dUMPNPP; SSB cacodylate pH 6.5/KCl/Mg acetate/PEG 8000 RT; DSB.A tripotassium citrate/PEG 3350 4 C; DSB.B Na sulfate/PEG 3350 RT; DSB.C cacodylate pH 6.5/ammonium sulfate/PEG 8K 4 C; DSB.D cacodylate pH 6.5/Ca acetate/PEG 8K 4 C, soaked in Mg acetate; conditions: protein: recombinant; tags: GST tag removed by TEV; two duplexes: ACTG:CAGTGC (3' overhang 2 nt) and CGGCAGC:GCCG (3' overhang 3 nt); 2-nt microhomology, 1-nt gap
[4] = target: T2, DNA polymerase lambda catalytic domain …; assay: X-ray crystallography, 2 A; dUMPNPP, Mg2+; Crystals only: DNA with protein on ice or RT, then 0.91 mM dUMPNPP; SSB cacodylate pH 6.5/KCl/Mg acetate/PEG 8000 RT; DSB.A tripotassium citrate/PEG 3350 4 C; DSB.B Na sulfate/PEG 3350 RT; DSB.C cacodylate pH 6.5/ammonium sulfate/PEG 8K 4 C; DSB.D cacodylate pH 6.5/Ca acetate/PEG 8K 4 C, soaked in Mg acetate; conditions: protein: recombinant; tags: GST tag removed by TEV; two duplexes: TACTG:CAGTGC (G:T mismatch at -2, 3' overhang 1 nt) and CGGCAG:GCCG (3' overhang 2 nt); 1-nt microhomology
[5] = target: T2, DNA polymerase lambda catalytic domain …; assay: X-ray crystallography, 1.57 A; dUMPNPP, Mg2+; Crystals only: DNA with protein on ice or RT, then 0.91 mM dUMPNPP; SSB cacodylate pH 6.5/KCl/Mg acetate/PEG 8000 RT; DSB.A tripotassium citrate/PEG 3350 4 C; DSB.B Na sulfate/PEG 3350 RT; DSB.C cacodylate pH 6.5/ammonium sulfate/PEG 8K 4 C; DSB.D cacodylate pH 6.5/Ca acetate/PEG 8K 4 C, soaked in Mg acetate; conditions: protein: recombinant; tags: GST tag removed by TEV; 1-nt gap; template with upstream primer and downstream primer

B1: DSB.B without upstream template (mixed)
DNA: CAGTGC
? 1: CGGCAGC
? 2: GCCG
modifications: 5'-phosphate on GCCG
B1: binds [1].

B2: DSB.D blunt-ended (dsDNA)
DNA 1: GCACTG
DNA 2: CAGTGC
DNA 3: CGGCA
DNA 4: GCCG
modifications: 5'-phosphate on GCCG
B2: binds [2].

B3: DSB.A complementary (dsDNA)
DNA 1: ACTG
DNA 2: CAGTGC
DNA 3: CGGCAGC
DNA 4: GCCG
modifications: 5'-phosphate on GCCG
B3: binds [3].

B4: DSB.C mismatched (dsDNA)
DNA 1: TACTG
DNA 2: CAGTGC
DNA 3: CGGCAG
DNA 4: GCCG
modifications: 5'-phosphate on GCCG
B4: binds [4].

B5: 1nt-gapped SSB (dsDNA)
DNA 1: CGGCAGTACTG
DNA 2: CAGTAC
DNA 3: GCCG
modifications: 5'-phosphate on GCCG
B5: binds [5].
